Ends that are not written are not given here. * marks the point of attachment. Biotin = O=C1N[C@H]2[C@H](CS[C@H]2CCCCC(=O)*)N1
Key:
Assay in all cases: A/G assays
[1] = biological target: T1, GST-TAX-IP43 PDZ domain fusion protein (human, UniProt Q13884 109-180)
T1 construct: also called TAX43; not shown: glutathione S-transferase encoded by vector pGEX-3X (Pharmacia)
T1 sequence: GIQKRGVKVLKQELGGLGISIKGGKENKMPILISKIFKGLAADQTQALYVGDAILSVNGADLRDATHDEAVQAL

[2] = biological target: T2, GST-TAX-IP2 PDZ domain fusion protein (human, UniProt O14908 129-216)
T2 construct: also called TAX-1P2; TAX2; not shown: glutathione S-transferase encoded by vector pGEX-3X (Pharmacia)
T2 chain: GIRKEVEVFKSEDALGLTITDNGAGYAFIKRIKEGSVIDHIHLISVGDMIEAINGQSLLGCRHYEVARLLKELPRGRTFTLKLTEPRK

[3] = biological target: T3, GST-PTN-4 PDZ domain fusion protein (Homo sapiens (Human), UniProt P29074 517-605)
T3 construct: also called protein-tyrosine phosphatase meg1; not shown: glutathione S-transferase encoded by vector pGEX-3X (Pharmacia)
T3 sequence: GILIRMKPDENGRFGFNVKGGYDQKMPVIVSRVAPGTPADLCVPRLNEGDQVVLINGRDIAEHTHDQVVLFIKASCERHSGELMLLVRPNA

[4] = biological target: T4, GST-MPP1 PDZ domain fusion protein (Homo sapiens (Human), UniProt Q00013 67-152)
T4 construct: also called p55; 55 Kd erythrocyte membrane protein; not shown: glutathione S-transferase encoded by vector pGEX-3X (Pharmacia)
T4 sequence: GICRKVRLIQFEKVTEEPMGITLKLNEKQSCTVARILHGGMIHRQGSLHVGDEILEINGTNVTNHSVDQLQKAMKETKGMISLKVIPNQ

[5] = biological target: T5, GST-AF6 PDZ domain fusion protein (Homo sapiens (Human), UniProt P55196 1001-1093)
T5 construct: also called af-6 protein; not shown: glutathione S-transferase encoded by vector pGEX-3X (Pharmacia)
T5 sequence: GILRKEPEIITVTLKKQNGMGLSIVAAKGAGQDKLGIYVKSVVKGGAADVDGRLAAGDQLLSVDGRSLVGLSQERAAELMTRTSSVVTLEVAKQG

[6] = biological target: T6, GST-RGS12 PDZ domain fusion protein (human, UniProt O14924 17-85)
T6 construct: also called human regulator of G-protein signalling 12; not shown: glutathione S-transferase encoded by vector pGEX-3X (Pharmacia)
T6 sequence: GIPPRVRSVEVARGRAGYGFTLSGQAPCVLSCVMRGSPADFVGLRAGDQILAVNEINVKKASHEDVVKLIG

[7] = biological target: T7, GST-TIAM1 PDZ domain fusion protein (Homo sapiens (Human), UniProt Q13009 845-931)
T7 construct: also called TLAM1; T-lymphoma invasion and metastasis inducing protein 1; not shown: glutathione S-transferase encoded by vector pGEX-3X (Pharmacia)
T7 sequence (Q13009 other isoform, or with tags, fused parts or gaps): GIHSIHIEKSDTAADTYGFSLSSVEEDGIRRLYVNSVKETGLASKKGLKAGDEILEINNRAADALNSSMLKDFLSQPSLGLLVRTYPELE

[8] = biological target: T8, GST-DVL1 PDZ domain fusion protein (human, UniProt O14640 247-339)
T8 construct: also called human dishevelled segment polarity protein homolog; not shown: glutathione S-transferase encoded by vector pGEX-3X (Pharmacia)
T8 sequence: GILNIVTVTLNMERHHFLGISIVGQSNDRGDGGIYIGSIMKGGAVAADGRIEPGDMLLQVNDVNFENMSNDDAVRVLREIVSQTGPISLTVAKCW

[9] = biological target: T9, GST-KIAA0303 PDZ domain fusion protein (Homo sapiens (Human), UniProt O15021 1138-1228)
T9 construct: also called K303; not shown: glutathione S-transferase encoded by vector pGEX-3X (Pharmacia)
T9 sequence: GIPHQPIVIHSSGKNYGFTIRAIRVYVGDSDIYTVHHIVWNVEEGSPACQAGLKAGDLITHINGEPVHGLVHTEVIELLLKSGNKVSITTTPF

[10] = biological target: T10, KIAA0807 (PDZ domain)-GST fusion protein (human, UniProt Q6P0Q8 1104-1192)
T10 construct: also called K807; KIAA807; not shown: glutathione S-transferase encoded by vector pGEX-3X (Pharmacia)
T10 sequence: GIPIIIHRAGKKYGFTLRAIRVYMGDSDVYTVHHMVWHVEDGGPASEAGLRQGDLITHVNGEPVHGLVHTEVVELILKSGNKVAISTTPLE

[11] = biological target: T11, X11β PDZ-GST fusion protein (Rattus norvegicus (Rat), UniProt O35431 560-745)
T11 construct: Order of GST and PDZ part and limits not seen in the excerpts
T11 chain: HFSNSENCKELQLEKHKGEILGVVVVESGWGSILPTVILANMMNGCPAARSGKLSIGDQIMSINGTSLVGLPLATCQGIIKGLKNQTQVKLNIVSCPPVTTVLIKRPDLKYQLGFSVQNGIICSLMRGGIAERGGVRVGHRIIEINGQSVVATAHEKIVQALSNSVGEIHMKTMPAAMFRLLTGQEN

[12] = biological target: T12, TAX-IP2L PDZ-GST fusion protein (Homo sapiens (Human), UniProt Q8TF64 107-197)
T12 construct: Order of GST and PDZ part and limits not seen in the excerpts
T12 sequence: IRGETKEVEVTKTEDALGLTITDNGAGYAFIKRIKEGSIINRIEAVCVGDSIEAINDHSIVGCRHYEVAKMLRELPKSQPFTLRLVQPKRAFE

[13] = biological target: T13, TAX-IP33 PDZ-GST fusion protein (Homo sapiens (Human), UniProt O14910 103-193)
T13 construct: Order of GST and PDZ part and limits not seen in the excerpts
T13 sequence: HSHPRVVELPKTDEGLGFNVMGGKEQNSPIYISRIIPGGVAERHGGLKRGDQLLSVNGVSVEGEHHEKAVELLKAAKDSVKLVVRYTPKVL

[14] = biological target: T14, K316 PDZ-GST fusion protein (Homo sapiens (Human), UniProt Q14CM0 72-159)
T14 construct: Order of GST and PDZ part and limits not seen in the excerpts
T14 sequence (Q14CM0 72-159 limits assumed): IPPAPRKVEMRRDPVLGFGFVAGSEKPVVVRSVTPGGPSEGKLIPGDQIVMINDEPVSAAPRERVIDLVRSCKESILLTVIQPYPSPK

[15] = biological target: T15, SP short PDZ-GST fusion protein (Homo sapiens (Human), UniProt O43464 350-435)
T15 construct: The label SP short is not explained in the excerpts
T15 sequence: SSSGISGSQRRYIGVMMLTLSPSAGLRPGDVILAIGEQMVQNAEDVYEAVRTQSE

[16] = biological target: T16, GEF PDZ-GST fusion protein (Homo sapiens (Human), UniProt Q8TEU7 293-400)
T16 construct: The label GEF is not explained in the excerpts
T16 sequence: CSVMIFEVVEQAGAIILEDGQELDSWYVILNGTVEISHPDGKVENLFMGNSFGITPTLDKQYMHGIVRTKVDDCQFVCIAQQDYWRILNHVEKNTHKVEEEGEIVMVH

Measured: binding result

Biotin-DLGNMEENKKLEENNHKTEA (also called CD166 (CD6L)) [CD166 C-terminal peptide AA20L, biotinylated]
no binding: all assays above

Biotin-ARHRVTSYTSSSVNVSSNL [CDW128A (IL8RA) C-terminal peptide AA29.1L, biotinylated]
no binding: all assays above

B1: CC CKR-1R C-terminal peptide AA41L (peptide)
peptide: Biotin-LERVSSTSPSTGEHELSAGF
notes: Only the last four residues are seen in the excerpts
no binding: all assays above

B2: CC CKR-4 C-terminal peptide AA44L (peptide)
peptide: Biotin-DTPSSSYTQSTMDHDLHDAL
notes: as for B1
no binding: all assays above

B3: CC CKR-2 C-terminal peptide AA42L (peptide)
peptide: Biotin-GKGKSIGRAPEASLQDKEGA
notes: as for B1
no binding: all assays above

Biotin-YSATYSELEDPGEMSPPIDL (also called FceRlb; FcεRβI) [FceRIb C-terminal peptide AA25L, biotinylated]
no binding: all assays above
